In patent US20250352661A1 (MYTHIC THERAPEUTICS, published 2025):

T1: Human LRRC15 Protein, His Tag (Acro Biosystems) (human, UniProt Q8TF66 22-538, limits assumed)
T1 construct: not shown: His tag
T1 sequence (looked up): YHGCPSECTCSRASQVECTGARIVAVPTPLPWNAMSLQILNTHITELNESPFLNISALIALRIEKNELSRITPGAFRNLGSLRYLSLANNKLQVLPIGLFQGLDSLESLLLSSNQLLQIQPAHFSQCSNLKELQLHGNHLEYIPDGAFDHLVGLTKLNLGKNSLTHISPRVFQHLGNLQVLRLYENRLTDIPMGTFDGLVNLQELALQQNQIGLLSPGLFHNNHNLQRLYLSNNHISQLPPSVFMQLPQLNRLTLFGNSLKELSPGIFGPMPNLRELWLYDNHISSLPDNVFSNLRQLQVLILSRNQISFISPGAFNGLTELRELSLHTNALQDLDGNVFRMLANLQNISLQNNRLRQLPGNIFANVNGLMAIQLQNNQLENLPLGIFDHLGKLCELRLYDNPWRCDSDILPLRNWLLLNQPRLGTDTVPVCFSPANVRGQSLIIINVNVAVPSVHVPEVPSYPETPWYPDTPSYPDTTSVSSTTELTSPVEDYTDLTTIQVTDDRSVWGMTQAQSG

B1: MYT9689 (antibody, V domains shown)
VH: EVQLVESGGGLVQPGGSLRLSCTASGFSFSESHWICWVRQAPGKGLEWVGCIYAGSIGSTYYASWAKGRFTISRDTSKNTVYLQMNSLRAEDTAVYYCARAPNDIYNYYFNLWGQGTLVTVSS
VL: EIVMTQSPSTLSASVGDRVIITCQASENIYNYLAWYQQKPGKAPKLLIYYASTLASGVPSRFSGSGSGAEFTLTISSLQPDDFATYYCQSGYVSKSSTFGQGTKLTVL
notes: also called hu29F1 VH S31E
B2: MYT9691 (antibody, V domains shown)
VH: EVQLVESGGGLVQPGGSLRLSCTASGFSFSSSEWICWVRQAPGKGLEWVGCIYAGSIGSTYYASWAKGRFTISRDTSKNTVYLQMNSLRAEDTAVYYCARAPNDIYNYYFNLWGQGTLVTVSS
VL: EIVMTQSPSTLSASVGDRVIITCQASENIYNYLAWYQQKPGKAPKLLIYYASTLASGVPSRFSGSGSGAEFTLTISSLQPDDFATYYCQSGYVSKSSTFGQGTKLTVL
notes: also called hu29F1 VH H33E
B3: MYT9701 (antibody, V domains shown)
VH: EVQLVESGGGLVQPGGSLRLSCTASGFSFSSSHWICWVRQAPGKGLEWVGCIYAGSEGSTYYASWAKGRFTISRDTSKNTVYLQMNSLRAEDTAVYYCARAPNDIYNYYFNLWGQGTLVTVSS
VL: EIVMTQSPSTLSASVGDRVIITCQASENIYNYLAWYQQKPGKAPKLLIYYASTLASGVPSRFSGSGSGAEFTLTISSLQPDDFATYYCQSGYVSKSSTFGQGTKLTVL
notes: also called hu29F1 VH I57E
B4: MYT9708 (antibody, V domains shown)
VH: EVQLVESGGGLVQPGGSLRLSCTASGFSFSSSHWICWVRQAPGKGLEWVGCIYAGSIGSTYYAEWAKGRFTISRDTSKNTVYLQMNSLRAEDTAVYYCARAPNDIYNYYFNLWGQGTLVTVSS
VL: EIVMTQSPSTLSASVGDRVIITCQASENIYNYLAWYQQKPGKAPKLLIYYASTLASGVPSRFSGSGSGAEFTLTISSLQPDDFATYYCQSGYVSKSSTFGQGTKLTVL
notes: also called hu29F1 VH S64E
B5: MYT9710 (antibody, V domains shown)
VH: EVQLVESGGGLVQPGGSLRLSCTASGFSFSSSHWICWVRQAPGKGLEWVGCIYAGSIGSTYYASWEKGRFTISRDTSKNTVYLQMNSLRAEDTAVYYCARAPNDIYNYYFNLWGQGTLVTVSS
VL: EIVMTQSPSTLSASVGDRVIITCQASENIYNYLAWYQQKPGKAPKLLIYYASTLASGVPSRFSGSGSGAEFTLTISSLQPDDFATYYCQSGYVSKSSTFGQGTKLTVL
notes: also called hu29F1 VH A66E
B6: MYT9706 (antibody, V domains shown)
VH: EVQLVESGGGLVQPGGSLRLSCTASGFSFSSSHWICWVRQAPGKGLEWVGCIYAGSIGSTYEASWAKGRFTISRDTSKNTVYLQMNSLRAEDTAVYYCARAPNDIYNYYFNLWGQGTLVTVSS
VL: EIVMTQSPSTLSASVGDRVIITCQASENIYNYLAWYQQKPGKAPKLLIYYASTLASGVPSRFSGSGSGAEFTLTISSLQPDDFATYYCQSGYVSKSSTFGQGTKLTVL
notes: also called hu29F1 VH Y62E
B7: MYT9705 (antibody, V domains shown)
VH: EVQLVESGGGLVQPGGSLRLSCTASGFSFSSSHWICWVRQAPGKGLEWVGCIYAGSIGSTEYASWAKGRFTISRDTSKNTVYLQMNSLRAEDTAVYYCARAPNDIYNYYFNLWGQGTLVTVSS
VL: EIVMTQSPSTLSASVGDRVIITCQASENIYNYLAWYQQKPGKAPKLLIYYASTLASGVPSRFSGSGSGAEFTLTISSLQPDDFATYYCQSGYVSKSSTFGQGTKLTVL
notes: also called hu29F1 VH Y61E
B8: MYT9690 (antibody, V domains shown)
VH: EVQLVESGGGLVQPGGSLRLSCTASGFSFSSEHWICWVRQAPGKGLEWVGCIYAGSIGSTYYASWAKGRFTISRDTSKNTVYLQMNSLRAEDTAVYYCARAPNDIYNYYFNLWGQGTLVTVSS
VL: EIVMTQSPSTLSASVGDRVIITCQASENIYNYLAWYQQKPGKAPKLLIYYASTLASGVPSRFSGSGSGAEFTLTISSLQPDDFATYYCQSGYVSKSSTFGQGTKLTVL
notes: also called hu29F1 VH S32E
B9: MYT9702 (antibody, V domains shown)
VH: EVQLVESGGGLVQPGGSLRLSCTASGFSFSSSHWICWVRQAPGKGLEWVGCIYAGSIESTYYASWAKGRFTISRDTSKNTVYLQMNSLRAEDTAVYYCARAPNDIYNYYFNLWGQGTLVTVSS
VL: EIVMTQSPSTLSASVGDRVIITCQASENIYNYLAWYQQKPGKAPKLLIYYASTLASGVPSRFSGSGSGAEFTLTISSLQPDDFATYYCQSGYVSKSSTFGQGTKLTVL
notes: also called hu29F1 VH G58E
B10: MYT9711 (antibody, V domains shown)
VH: EVQLVESGGGLVQPGGSLRLSCTASGFSFSSSHWICWVRQAPGKGLEWVGCIYAGSIGSTYYASWAEGRFTISRDTSKNTVYLQMNSLRAEDTAVYYCARAPNDIYNYYFNLWGQGTLVTVSS
VL: EIVMTQSPSTLSASVGDRVIITCQASENIYNYLAWYQQKPGKAPKLLIYYASTLASGVPSRFSGSGSGAEFTLTISSLQPDDFATYYCQSGYVSKSSTFGQGTKLTVL
notes: also called hu29F1 VH K67E
B11: MYT9704 (antibody, V domains shown)
VH: EVQLVESGGGLVQPGGSLRLSCTASGFSFSSSHWICWVRQAPGKGLEWVGCIYAGSIGSEYYASWAKGRFTISRDTSKNTVYLQMNSLRAEDTAVYYCARAPNDIYNYYFNLWGQGTLVTVSS
VL: EIVMTQSPSTLSASVGDRVIITCQASENIYNYLAWYQQKPGKAPKLLIYYASTLASGVPSRFSGSGSGAEFTLTISSLQPDDFATYYCQSGYVSKSSTFGQGTKLTVL
notes: also called hu29F1 VH T60E
B12: MYT9703 (antibody, V domains shown)
VH: EVQLVESGGGLVQPGGSLRLSCTASGFSFSSSHWICWVRQAPGKGLEWVGCIYAGSIGETYYASWAKGRFTISRDTSKNTVYLQMNSLRAEDTAVYYCARAPNDIYNYYFNLWGQGTLVTVSS
VL: EIVMTQSPSTLSASVGDRVIITCQASENIYNYLAWYQQKPGKAPKLLIYYASTLASGVPSRFSGSGSGAEFTLTISSLQPDDFATYYCQSGYVSKSSTFGQGTKLTVL
notes: Humanized 29F1 VH glutamate variant; also called hu29F1 VH S59E
B13: MYT9696 (antibody, V domains shown)
VH: EVQLVESGGGLVQPGGSLRLSCTASGFSFSSSHWICWVRQAPGKGLEWVGCEYAGSIGSTYYASWAKGRFTISRDTSKNTVYLQMNSLRAEDTAVYYCARAPNDIYNYYFNLWGQGTLVTVSS
VL: EIVMTQSPSTLSASVGDRVIITCQASENIYNYLAWYQQKPGKAPKLLIYYASTLASGVPSRFSGSGSGAEFTLTISSLQPDDFATYYCQSGYVSKSSTFGQGTKLTVL
notes: also called hu29F1 VH I52E
B14: MYT9693 (antibody, V domains shown)
VH: EVQLVESGGGLVQPGGSLRLSCTASGFSFSSSHWECWVRQAPGKGLEWVGCIYAGSIGSTYYASWAKGRFTISRDTSKNTVYLQMNSLRAEDTAVYYCARAPNDIYNYYFNLWGQGTLVTVSS
VL: EIVMTQSPSTLSASVGDRVIITCQASENIYNYLAWYQQKPGKAPKLLIYYASTLASGVPSRFSGSGSGAEFTLTISSLQPDDFATYYCQSGYVSKSSTFGQGTKLTVL
notes: also called hu29F1 VH I35E
B15: MYT9707 (antibody, V domains shown)
VH: EVQLVESGGGLVQPGGSLRLSCTASGFSFSSSHWICWVRQAPGKGLEWVGCIYAGSIGSTYYESWAKGRFTISRDTSKNTVYLQMNSLRAEDTAVYYCARAPNDIYNYYFNLWGQGTLVTVSS
VL: EIVMTQSPSTLSASVGDRVIITCQASENIYNYLAWYQQKPGKAPKLLIYYASTLASGVPSRFSGSGSGAEFTLTISSLQPDDFATYYCQSGYVSKSSTFGQGTKLTVL
notes: also called hu29F1 VH A63E
B16: MYT9699 (antibody, V domains shown)
VH: EVQLVESGGGLVQPGGSLRLSCTASGFSFSSSHWICWVRQAPGKGLEWVGCIYAESIGSTYYASWAKGRFTISRDTSKNTVYLQMNSLRAEDTAVYYCARAPNDIYNYYFNLWGQGTLVTVSS
VL: EIVMTQSPSTLSASVGDRVIITCQASENIYNYLAWYQQKPGKAPKLLIYYASTLASGVPSRFSGSGSGAEFTLTISSLQPDDFATYYCQSGYVSKSSTFGQGTKLTVL
notes: also called hu29F1 VH G55E

What follows are binders tested against T1, Human LRRC15 Protein, His Tag (Acro …) (assay: BLI; dissociation pH 7.4 black, pH 5.4 grey [1/2); D00025 FIG. 6B (1/2]).
Protocol: Desirable mutations were transferred to a humanized framework (humanized, MYT 8387-8411). After allowing for four days of protein expression, cell culture supernatants were collected, quantified by SDS-PAGE analysis, and the pH dependence of the variant was evaluated using biolayer interferometry (BLI) on an Octet RED 96e instrument. Briefly, cell culture supernatants were diluted based on qualitative expression level of the variant determined by visual examination of SDS-PAGE gels, 5 μL of cell culture supernatant was diluted into 195 μL of 1×PBST, pH 7.4 for high expressors, 25 μL of cell culture supernatant was diluted into 175 μL of 1×PBST, pH 7.4 for medium expressors and 100 μL of cell culture supernatant was diluted into 100 μL of 1×PBST, pH 7.4 for low expressors for loading onto the sensor tips. The resulting diluted supernatants were then captured on an anti-human Fc sensor (Forte Bio). A baseline was established using 1×PBST (50 mM Potassium Phosphate Buffer+150 mM NaCl+0.05% Tween 20) pH 7.4, and the […] was associated with 50 nM of LRRC15 (Human LRRC15 Protein, His Tag, Acro Biosystems) in 1×PBST pH 7.4 for 120 sec to generate an association curve. In the dissociation phase, the antibody-antigen complex on the sensor was exposed to 1×PBST pH 7.4 or pH 5.4, for 300 sec. Association and dissociation phase curves were examined for the starting ABPC antibody (with no substitutions) and each corresponding antibody variant at pH 5.4 and pH 7.4 to inform on two criteria: a) enhanced dissociation (i.e., higher koff values) at pH 5.4 due to histidine substitution compared to the starting ABPC, (with no substitutions), and b) reduced dissociation at pH 7.4 (i.e., lower koff values) compared to pH 5.4 in the antibody variant itself and with the starting ABPC (with no substitutions).
The methods of Examples 9-10 were applied to RabMAb clone 29F1 (rabbit VH SEQ ID NO: 572 and VL SEQ ID NO: 578; and humanized VH SEQ ID NO: 576 and VL SEQ ID NO: 582).

Binding result, binds:
B1
B2
B3
B4
B5
B6
B7
B8
B9
B10
B11
B12
B13
B14
B15
B16
